± gives the standard deviation.
Assay: protein stability index of a GFP-peptide fusion (GPS, HEK-293T) (PSI 1-6); higher = more stable
[1] = treatment: DMSO, c terminus: a fixed tail appended
[2] = treatment: MLN4924 1 uM, 8 h, c terminus: a fixed tail appended
[3] = treatment: DMSO, c terminus: native
[4] = treatment: MLN4924 1 uM, 8 h, c terminus: native
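Further: 24-mer peptide tiles fused after GFP, lentivirally expressed, FACS-sorted into six equal bins by GFP/DsRed ratio, decoded by Illumina sequencing, PSI is the read-weighted mean bin number.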

Sequence	protein stability index [1]	protein stability index [2]	protein stability index [3]	protein stability index [4]
LENRIQREIALAKKHGTQNKRAAL [CHMP4C]	4.09 ± 0.26	4.04 ± 0.25		
FEAPPLQGQAAAPASGSGADSEPA [TRIM55]	5.65 ± 0.28	5.53 ± 0.1		
NASRSLYPDAEDPQLGLDGPGEPD [PSD2]	5.4 ± 0.2	5.51 ± 0.22		
PNDEHWKALSRKSTSFRVYIMAFD [FBXO33]	2.11 ± 0.52	2.27 ± 0.45		
DFLEEVEEIVFNLTNNVDLDNTKK [MNAT1]	3.03 ± 0.38	3.18 ± 0.26		
LLLLDLLALYTPVGAAGSARQELL [ANKRD9]	2.89 ± 0.38	2.88 ± 0.27		
AFPGASHESSGNPPLRVIVKDALF [RHOBTB3]	2.96 ± 0.28	3.25 ± 0.41		
SSLEEIVEKQGDTIEYLKRHNALL [TMEM192]	3.82 ± 0.38	3.92 ± 0.16		
LSTPKPLVDFCNKPILLHQVEALA [GMPPB]	2.54 ± 0.3	2.52 ± 0.41		
SFGACLREETPRMPSWASARDRQP [ELOA2]	3.4 ± 0.34	3.13 ± 0.32		
KYRSYEEFKADAQLLLHNTVIFYG [ZMYND11]	2 ± 0.46	2.07 ± 0.33		
VFDCLKDGMRNKETLEGREKAFIA [MED27]	3.88 ± 0.28	3.91 ± 0.25		
NDADKAINTLNGLKLQTKTIKVSY [ELAVL3]	2.96 ± 0.23	3.11 ± 0.25		
EILTCGRDGEPEPMQKLQDLVNRT [RBBP5]	4.01 ± 0.2	3.78 ± 0.25		
VLRSWYEKNKHIFPASRWEPYDPE [FAM50A]	2.87 ± 0.078	3 ± 0.21		
ELVSADVIDLFDEQGLSALHLAAQ [RIPK4]	3.02 ± 0.78	3.56 ± 0.4		
VQTPPGGSEVVPVISPMYQLHKPL [IKZF1]	3.77 ± 0.4	3.53 ± 0.23		
ETVADVRTLPNASTVDNIRSIFGN [MLH1]	4.21 ± 0.18	4.19 ± 0.11		
FTGNSKLELNFKAGDVIFLLSRIN [NCF4]	2.67 ± 0.76	3.16 ± 1.1		
FNGNYKVDSPKNFNIAGTVVKYRR [ADAMTSL2]	3.14 ± 0.23	3.44 ± 0.36		
IDLSAWCYYCQAYVHHQALLDVKN [HDAC6]	2.73 ± 0.38	3.08 ± 1.2		
FEDLPLQEPQSPQKLNPGFDLAKG [PLAGL1]	5.03 ± 0.14	4.83 ± 0.19		

Sequence	protein stability index [1]	protein stability index [2]	protein stability index [3]	protein stability index [4]
MSIHIVALGNEGDTFHQDNQPSGL [RHOBTB3]	2.51 ± 0.25	2.52 ± 0.4		
KMTDLLSRRLQLGSEENGRYFSLS [PCDHGC5]	2.41 ± 0.16	2.47 ± 0.14		
VWERPARSALWCLGLNAAFWFFAL [RETREG3]	2.62 ± 0.77	2.61 ± 0.2		
HLANHDDLISKSFQGSQGRAYLFN [YPEL3]	2.8 ± 0.075	3.03 ± 0.24		
ILLDPILMFFIMAAMLSMVKYNSC [POMT2]	3.27 ± 0.18	3.2 ± 0.05		
IKPAPARAPACSPEAAAAQLRATA [FCHO1]	3.53 ± 0.17	3.98 ± 0.13		
KLEESKQLLKNNEKLITWLNKELN [SASS6]	2.24 ± 0.36	1.99 ± 0.73		
RWSLISLSNKNGKNVELKFVDSIR [TENT5C]	2.39 ± 0.26	2.36 ± 0.44		
GIFEESFIEERRQGLEQFINKIAG [SNX12]	2.98 ± 0.59	2.84 ± 0.32		
ETKKVLGLQDTITAELVVIEDAAE [PALM]	4.92 ± 0.35	4.78 ± 0.32		
GRQKYKRRPEVDPLPFPGPFPAGP [ESRRA]	3.87 ± 0.22	4.02 ± 0.26		
QEAMKRLRGAKAFRLPGLSRRERE [FCHO1]	3.91 ± 0.25	4.13 ± 0.2		
TLITAVELERFVNLHSLALDFCDF [FBXO33]	2.47 ± 0.28	2.95 ± 1.3		
EDGEDFNLGDALDSSNSMQTIQKT [KRT18]	5.44 ± 0.29	5.41 ± 0.32		
SMCEHHLVPFVGKVHIGYLPNKQV [GCH1]	2.16 ± 0.38	2.29 ± 0.39		
AVATIVKPLSAIPQPTITKQEVI [HNF4A]			2.43 ± 0.28	2.37 ± 0.19
ASQPVKKQQENATSCSLELIGDLI [WDR41]	3.47 ± 0.27	3.45 ± 0.38		
KGEFKDEEETVTTKHIHITQATET [CLINT1]	5.42 ± 0.059	5.4 ± 0.097		
DCPKIVEPHGKMFNEQTWEVSQQD [ZSCAN9]	5.16 ± 0.089	5.18 ± 0.11		
RVERRFHFSQSLTVIHDFLFSLKE [FAF2]	2.17 ± 0.15	2.44 ± 0.23		
DPLNICVFILLLVFIVVKCFTSE [RTP4]			2.93 ± 0.24	2.89 ± 0.098
SVDLMLGLPAQQVGPWLGQLQELL [RSAD1]	2.38 ± 0.1	2.38 ± 0.45		

Reference: the supplement of paper PMC10567573
